Measurements reported in the supplement of paper PMC11246515.
± gives the standard deviation of the averaged measurements.

Assay: total protein half-life in vivo (active degradation + dilution); higher = more stable protein
[1] = E. coli NCM3722 delta-clpP delta-lon delta-hslV, growth: N-lim chemostat, doubling time 6 h
[2] = wild type E. coli NCM3722, growth: N-lim chemostat, doubling time 12 h
[3] = E. coli NCM3722 delta-clpP, growth: N-lim chemostat, doubling time 6 h
[4] = E. coli NCM3722 delta-hslV, growth: N-lim chemostat, doubling time 6 h
[5] = E. coli NCM3722 delta-smpB, growth: N-lim chemostat, doubling time 6 h
[6] = wild type E. coli NCM3722, growth: C-lim chemostat, doubling time 3 h
[7] = wild type E. coli NCM3722, growth: C-lim chemostat, doubling time 6 h
[8] = wild type E. coli NCM3722, growth: C-lim chemostat, doubling time 12 h
[9] = wild type E. coli NCM3722, growth: N-lim chemostat, doubling time 6 h
[10] = wild type E. coli NCM3722, growth: P-lim chemostat, doubling time 6 h
[11] = wild type E. coli NCM3722, growth: P-lim chemostat, doubling time 12 h
[12] = E. coli NCM3722 delta-lon, growth: N-lim chemostat, doubling time 6 h

Sequence	total protein half-life in vivo [1] [h]	total protein half-life in vivo [2] [h]	total protein half-life in vivo [3] [h]	total protein half-life in vivo [4] [h]	total protein half-life in vivo [5] [h]	total protein half-life in vivo [6] [h]	total protein half-life in vivo [7] [h]	total protein half-life in vivo [8] [h]	total protein half-life in vivo [9] [h]	total protein half-life in vivo [10] [h]	total protein half-life in vivo [11] [h]	total protein half-life in vivo [12] [h]
MDWLLDVFATWLYGLKVIAITLAVIMFISGLDDFFIDVVYWVRRIKRKLSVYRRYPRMSYRELYKPDEKPLAIMVPAWNETGVIGNMAELAATTLDYENYHIFVGTYPNDPDTQRDVDEVCARFPNVHKVVCARPGPTSKADCLNNVLDAITQFERSANFAFAGFILHDAEDVISPMELRLFNYLVERKDLIQIPVYPFEREWTHFTSMTYIDEFSELHGKDVPVREALAGQVPSAGVGTCFSRRAVTALLADGDGIAFDVQSLTEDYDIGFRLKEKGMTEIFVRFPVVDEAKEREQRKFLQHARTSNMICVREYFPDTFSTAVRQKSRWIIGIVFQGFKTHKWTSSLTLNYFLWRDRKGAISNFVSFLAMLVMIQLLLLLAYESLWPDAWHFLSIFSGSAWLMTLLWLNFGLMVNRIVQRVIFVTGYYGLTQGLLSVLRLFWGNLINFMANWRALKQVLQHGDPRRVAWDKTTHDFPSVTGDTRSLRPLGQILLENQVITEEQLDTALRNRVEGLRLGGSMLMQGLISAEQLAQALAEQNGVAWESIDAWQIPSSLIAEMPASVALHYAVLPLRLENDELIVGSEDGIDPVSLAALTRKVGRKVRYVIVLRGQIVTGLRHWYARRRGHDPRAMLYNAVQHQWLTEQQAGEIWRQYVPHQFLFAEILTTLGHINRSAINVLLLRHERSSLPLGKFLVTEGVISQETLDRVLTIQRELQVSMQSLLLKAGLNTEQVAQLESENEGE [P0AFA5]	4.66 ± 1.7	9.6 ± 6.5	–	–	–	–	–	–	–	–	–	–
MDYVCSVVFICQSFDLIINRRVISFKKNSLFIVSDKIRRELPVCPSKLRIVDIDKKTCLSFFIDVNNELPGKFTLDKNGYIAEEEPPLSLVFSLFEGIKIADSHSLWLKERLCISLLAMFKKRESVNSFILTNINTFTCKITGIISFNIERQWHLKDIAELIYTSESLIKKRLRDEGTSFTEILRDTRMRYAKKLITSNSYSINVVAQKCGYNSTSYFICAFKDYYGVTPSHYFEKIIGVTDGINKTID	5.39 ± 1.1	5.67 ± 0.64	3.62 ± 0.73	3.65 ± 0.5	3.18 ± 0.42	2.27 ± 0.2	4.11 ± 0.32	6.14	2.95	3.89 ± 0.38	7.61 ± 2.4	–
MEFAFYICGLIAILATLRVITHTNPVHALLYLIISLLAISGVFFSLGAYFAGALEIIVYAGAIMVLFVFVVMMLNLGGSEIEQERQWLKPQVWIGPAILSAIMLVVIVYAILGVNDQGIDGTPISAKAVGITLFGPYVLAVELASMLLLAGLVVAFHVGREERAGEVLSNRKDDSAKRKTEEHA [P0AFE0]	–	11.5	–	4.21	6.02	–	6.7	–	6.07	6.02	13.8 ± 2.9	–
MEFFKKTALAALVMGFSGAALALPNITILATGGTIAGGGDSATKSNYTVGKVGVENLVNAVPQLKDIANVKGEQVVNIGSQDMNDNVWLTLAKKINTDCDKTDGFVITHGTDTMEETAYFLDLTVKCDKPVVMVGAMRPSTSMSADGPFNLYNAVVTAADKASANRGVLVVMNDTVLDGRDVTKTNTTDVATFKSVNYGPLGYIHNGKIDYQRTPARKHTSDTPFDVSKLNELPKVGIVYNYANASDLPAKALVDAGYDGIVSAGVGNGNLYKSVFDTLATAAKTGTAVVRSSRVPTGATTQDAEVDDAKYGFVASGTLNPQKARVLLQLALTQTKDPQQIQQIFNQY	–	12.3 ± 0.7	5.6 ± 1.2	6.41 ± 0.082	6.23 ± 0.81	–	5.38 ± 0.38	> 16	6.03 ± 0.47	6.54 ± 0.46	13 ± 0.46	5.53 ± 0.3
MEHISTTTLIIILIIMVVISAYFSGSETGMMTLNRYRLRHMAKQGNRSAKRVEKLLRKPDRLISLVLIGNNLVNILASALGTIVGMRLYGDAGVAIATGVLTFVVLVFAEVLPKTIAALYPEKVAYPSSFLLAPLQILMMPLVWLLNAITRMLMRMMGIKTDIVVSGSLSKEELRTIVHESRSQISRRNQDMLLSVLDLEKMTVDDIMVPRSEIIGIDINDDWKSILRQLSHSPHGRIVLYRDSLDDAISMLRVREAWRLMSEKKEFTKETMLRAADEIYFVPEGTPLSTQLVKFQRNKKKVGLVVNEYGDIQGLVTVEDILEEIVGDFTTSMSPTLAEEVTPQNDGSVIIDGTANVREINKAFNWHLPEDDARTVNGVILEALEEIPVAGTRVRIGEYDIDILDVQDNMIKQVKVFPVKPLRESVAE	6.45 ± 0.94	11.6 ± 1	6.26 ± 0.14	6.04 ± 0.47	5.75 ± 0.47	3.02 ± 0.34	6.47 ± 1.1	9.51 ± 2.4	6.56 ± 0.41	6 ± 0.074	10.9 ± 1	–
MEISFTRVALLAAALFFVGCDQKPQPAKTHATEVTVLEGKTMGTFWRASIPGIDAKRSAELKEKIQTQLDADDQLLSTYKKDSALMRFNDSQSLSPWPVSEAMADIVTTSLRIGAKTDGAMDITVGPLVNLWGFGPEQQPVQIPSQEQIDAMKAKTGLQHLTVINQSHQQYLQKDLPDLYVDLSTVGEGYAADHLARLMEQEGISRYLVSVGGALNSRGMNGEGLPWRVAIQKPTDKENAVQAVVDINGHGISTSGSYRNYYELDGKRLSHVIDPQTGRPIEHNLVSVTVIAPTALEADAWDTGLMVLGPEKAKEVVRREGLAVYMITKEGDSFKTWMSPQFKSFLVSEKN [P0AB85]	6.34 ± 0.12	12.3 ± 1.8	6.53 ± 0.012	5.8 ± 0.66	5.97 ± 0.26	2.9 ± 0.21	6.95 ± 0.84	11.9 ± 0.74	6.29 ± 0.19	6.3 ± 1.1	13.4 ± 0.18	6.9 ± 0.33
MEKDYLRISSTVLVSLLFGLALVLVNSWFNQPGVEEVVPRSTYLMVMIALFFIDTVAFIFMQLYFIYDRRQFSNCVLSLAFLSCLIYFVITVIIIQQIIEERLTSSVVQNDIAIYYLFRQMSLCILIFLALVNKVSENTKQRNLFSKKMTLCISLFFVFGGPIVAHILSSHYESYNLHIAELTNENGQVVWKASYVTIMIFMWLTLLSVNLYFNGLRYDIWNGVTVIAFCAVLYNISLLFMSRYSVSTWYISRTIEVVSKLTVMVIFMCHIFSALRVTKNIAHRDPLTNIFNRNYFFNELTVQSASAQKTPYCVMIMDIDHFKKVNDTWGHPVGDQVIKTVVNIIGKSIRPDDLLARVGGEEFGVLLTDIDTERAKALAERIRENVERLTGDNPEYAIPQKVTISIGAVVTQENALNPNEIYRLADNALYEAKETGRNKVVVRDVVNFCESP	–	–	–	–	–	2.9	–	–	–	–	–	–
MEKEQLIEIANTIMPFGKYKGRRLIDLPEEYLLWFARKDEFPAGKLGELMQITLLIKTEGLTQLVQPLKRPL [P0AD40]	6.16 ± 0.29	–	–	–	–	–	5.09	6.67	–	3.3	8.7 ± 2.7	–
MEKGTVKWFNNAKGFGFICPEGGGEDIFAHYSTIQMDGYRTLKAGQSVQFDVHQGPKGNHASVIVPVEVEAAVA [P0A968]	2.08	–	1.11 ± 0.089	0.144	–	0.333 ± 0.022	0.386	0.224	–	–	–	–
MEKKHIYLFCSAGMSTSLLVSKMRAQAEKYEVPVIIEAFPETLAGEKGQNADVVLLGPQIAYMLPEIQRLLPNKPVEVIDSLLYGKVDGLGVLKAAVAAIKKAAAN	4.43 ± 0.066	4.37 ± 1	3.28 ± 0.13	2.92 ± 0.14	3.16 ± 0.091	2.72 ± 0.065	3.64 ± 0.58	6 ± 0.41	2.82 ± 0.2	4.042 ± 0.031	7.9 ± 0.83	4.05 ± 0.47
MEKLRVGIVFGGKSAEHEVSLQSAKNIVDAIDKSRFDVVLLGIDKQGQWHVSDASNYLLNADDPAHIALRPSATSLAQVPGKHEHQLIDAQNGQPLPTVDVIFPIVHGTLGEDGSLQGMLRVANLPFVGSDVLASAACMDKDVTKRLLRDAGLNIAPFITLTRANRHNISFAEVESKLGLPLFVKPANQGSSVGVSKVTSEEQYAIAVDLAFEFDHKVIVEQGIKGREIECAVLGNDNPQASTCGEIVLTSDFYAYDTKYIDEDGAKVVVPAAIAPEINDKIRAIAVQAYQTLGCAGMARVDVFLTPENEVVINEINTLPGFTNISMYPKLWQASGLGYTDLITRLIELALERHAADNALKTTM [P0A6J8]	4.83 ± 0.18	8.61 ± 0.1	5.65 ± 1.4	4.95 ± 0.063	4.9 ± 0.21	2.99 ± 0.12	–	10.5 ± 0.68	4.89 ± 0.086	5.56 ± 0.49	11.5 ± 0.22	6.41 ± 1.5
MEKNNEVIQTHPLVGWDISTVDSYDALMLRLHYQTPNKSEQEGTEVGQTLWLTTDVARQFISILEAGIAKIESGDFQVNEYRRH [P0AB33]	4.09	–	–	–	–	–	–	–	–	–	–	–
MEKYLHLLSRGDKIGLTLIRLSIAIVFMWIGLLKFVPYEADSITPFVANSPLMSFFYEHPEDYKQYLTHEGEYKPEARAWQTANNTYGFSNGLGVVEVIIALLVLANPVNRWLGLLGGLMAFTTPLVTLSFLITTPEAWVPALGDAHHGFPYLSGAGRLVLKDTLMLAGAVMIMADSAREILKQRSNESSSTLKTEY	–	6.8	–	–	5.11	–	–	12.5	–	–	–	–
MELIFLGTSAGVPTRTRNVTAILLNLQHPTQSGLWLFDCGEGTQHQLLHTAFNPGKLDKIFISHLHGDHLFGLPGLLCSRSMSGIIQPLTIYGPQGIREFVETALRISGSWTDYPLEIVEIGAGEILDDGLRKVTAYPLEHPLECYGYRIEEHDKPGALNAQALKAAGVPPGPLFQELKAGKTITLEDGRQINGADYLAAPVPGKALAIFGDTGPCDAALDLAKGVDVMVHEATLDITMEAKANSRGHSSTRQAATLAREAGVGKLIITHVSSRYDDKGCQHLLRECRSIFPATELANDFTVFNV [P0A8V0]	4.1 ± 0.62	7.42 ± 0.32	5.44 ± 1	4.51 ± 0.3	3.918 ± 0.011	3.01 ± 0.12	5.64 ± 0.69	10 ± 0.64	3.93 ± 0.28	5.54 ± 1.4	11.3 ± 2.1	5.43 ± 0.51
MELKDYYAIMGVKPTDDLKTIKTAYRRLARKYHPDVSKEPDAEARFKEVAEAWEVLSDEQRRAEYDQMWQHRNDPQFNRQFHHGDGQSFNAEDFDDIFSSIFGQHARQSRQRPATRGHDIEIEVAVFLEETLTEHKRTISYNLPVYNAFGMIEQEIPKTLNVKIPAGVGNGQRIRLKGQGTPGENGGPNGDLWLVIHIAPHPLFDIVGQDLEIVVPVSPWEAALGAKVTVPTLKESILLTIPPGSQAGQRLRVKGKGLVSKKQTGDLYAVLKIVMPPKPDENTAALWQQLADAQSSFDPRKDWGKA	6.73 ± 1.4	9.91 ± 2.2	5.61 ± 0.13	5.26 ± 0.1	4.99 ± 0.26	3.32 ± 0.26	5.86 ± 1.2	–	4.87 ± 0.37	5.76 ± 0.35	12.8 ± 0.6	6.28 ± 0.45
MELKKLMGHISIIPDYRQAWKMEHKLSDILLLTICAVISGAEGWEDIEDFGETHPDFLKQYGDFENGIPVHDTIARVVSCISPAKFHECFINWMRDCHSSDDKDVIAIDGKTLRHSYDKSRRRGAIHVISAFSTMHSLVIGQIKTDEKSNEITAIPELLNMLDIKGKIITTDAMGCQKDIAEKIQKQGGDYLFAVKGNQGRLNKAFEEKFPLKELNNPAHDSYAMSEKSHGREEIRLHIVCDVPDELIDFTFEWKGLKKLCVAVSFRSIIAEQKKELEMTVRYYISSADLTAEKFATAIRNHWHVENKLHWRLDVVMNEDDCKIRRGNAAELFSGIRHIAINILTNDKVFKAGLRRKMRKAAMDRNYLASVLTGSGLS	6.51	–	–	–	–	–	–	–	–	–	11.9	–
